Source: the Human Domainome abundance scans (Beltran et al. 2025)
± gives the uncertainty stated by the source.

B1: TOX high mobility group box family member 3, residues 256 to 323; numbered along this chain, O15405 (parent)
chain: QKPVSAYALFFRDTQAAIKGQNPNATFGEVSKIVASMWDSLGEEQKQVYKRKTEAAKKEYLKALAAYR
B2: PMS1 protein homolog 1, residues 572 to 637; numbered along this chain, P54277 (parent)
chain: KKPMSASALFVQDHRPQFLIENPKTSLEDATLQIEELWKTLSEEEKLKYEEKATKDLERYNSQMKR

Variants of: B1
Assay: abundance fitness (aPCA) (normalised: wild type 0, dead -1); higher = more abundant; growth selection in yeast, the domain comes from the species named
Conditions: Homo sapiens

Abundance fitness, by site and new letter:
T14: P -0.62 ± 0.12, R -0.03 ± 0.065, M 0.048 ± 0.084, H -0.453 ± 0.34, W -0.364 ± 0.067, A -0.29 ± 0.11, Q 0.146 ± 0.096, V -0.147 ± 0.062, C -0.781 ± 0.29, G -0.709 ± 0.11, I -0.326 ± 0.12, D -0.704 ± 0.17
L9: S 0.077 ± 0.091, C -0.106 ± 0.1, M -0.035 ± 0.081, K -0.425 ± 0.13, V -0.224 ± 0.077, H -0.394 ± 0.19, N -0.705 ± 0.41, R -0.498 ± 0.1, I 0.233 ± 0.13, P -1.08 ± 0.39, G -0.303 ± 0.083, D -0.217 ± 0.29, W -0.218 ± 0.11, Q 0.053 ± 0.073, F -0.31 ± 0.11, T -0.039 ± 0.084, A -0.042 ± 0.064, E 0.262 ± 0.16
V4: E 0.155 ± 0.064, M 0.159 ± 0.082, C -0.097 ± 0.051, Y -0.24 ± 0.097, F -0.148 ± 0.078, I 0.091 ± 0.072, N 0.02 ± 0.1, W -0.331 ± 0.063, P -0.001 ± 0.077, H -0.182 ± 0.081, Q -0.073 ± 0.058, T -0.073 ± 0.079, S -0.112 ± 0.057, A -0.202 ± 0.079, R -0.109 ± 0.043, G -0.005 ± 0.063
A8: R -0.027 ± 0.044, Y -0.458 ± 0.24, Q 0.09 ± 0.081, T -0.196 ± 0.11, I -0.477 ± 0.19, C 0.163 ± 0.097, E -0.376 ± 0.18, M 0.219 ± 0.056, G -0.179 ± 0.17, P -0.464 ± 0.12, L -0.235 ± 0.065, K 0.009 ± 0.074, H 0.136 ± 0.17, W -0.252 ± 0.098, S 0.002 ± 0.065, F -0.33 ± 0.18, D 0.039 ± 0.15, V -0.123 ± 0.056
Q15: L -0.13 ± 0.084, K -0.109 ± 0.091, C -0.178 ± 0.2, F 0.022 ± 0.086, R -0.309 ± 0.072, Y 0.367 ± 0.34, H -0.084 ± 0.14, V -0.173 ± 0.057, P -1.08 ± 0.19, W -0.194 ± 0.075, E -0.065 ± 0.066, S -0.538 ± 0.18, N -0.212 ± 0.3, M -0.068 ± 0.078, A -0.512 ± 0.15, G -0.6 ± 0.12, I 0.027 ± 0.27

Variants of: B2
Assay: as above
Conditions: Homo sapiens

Abundance fitness: each site, then its substitutions
M64: L -0.133 ± 0.062, K -0.349 ± 0.21, R -0.136 ± 0.083, A -0.059 ± 0.09, F -0.095 ± 0.15, V 0.015 ± 0.067, G -0.103 ± 0.1, T -0.142 ± 0.099, E -0.195 ± 0.2, Y 0.035 ± 0.14, N -0.144 ± 0.13, D -0.32 ± 0.2, I -0.172 ± 0.12, C -0.205 ± 0.15, H 0.08 ± 0.16, P -0.108 ± 0.096, S -0.049 ± 0.055
S62: V -0.078 ± 0.063, T -0.227 ± 0.093, M -0.099 ± 0.098, Y -0.104 ± 0.096, L -0.071 ± 0.071, G -0.151 ± 0.074, D -0.115 ± 0.15, I -0.249 ± 0.14, F -0.067 ± 0.078, E -0.035 ± 0.11, R -0.09 ± 0.11, Q -0.027 ± 0.085, P -0.148 ± 0.09, H 0.021 ± 0.14, N 0.017 ± 0.12, K 0.049 ± 0.078, W -0.084 ± 0.15
Q63: C -0.096 ± 0.11, D 0.079 ± 0.15, K 0.02 ± 0.11, P -0.262 ± 0.098, S -0.207 ± 0.1, Y -0.078 ± 0.088, H -0.21 ± 0.16, N 0.075 ± 0.16, G -0.093 ± 0.074, L -0.109 ± 0.067, A 0.071 ± 0.079, M -0.109 ± 0.12, R -0.178 ± 0.081, T -0.072 ± 0.088, F -0.036 ± 0.4, I -0.348 ± 0.17, V -0.113 ± 0.061, E -0.038 ± 0.14
K65: V -0.068 ± 0.1, I -0.25 ± 0.2, C -0.203 ± 0.24, H -0.373 ± 0.25, Q 0.02 ± 0.11, M -0.237 ± 0.12, T -0.264 ± 0.18, R -0.086 ± 0.12, N -0.163 ± 0.12, A 0.014 ± 0.092, F -0.276 ± 0.22, W -0.502 ± 0.22, L 0.029 ± 0.081, P 0.009 ± 0.13, E 0.073 ± 0.12, D 0.084 ± 0.2, G -0.497 ± 0.19, Y -0.207 ± 0.19
R66: I -0.697 ± 0.43, W -0.261 ± 0.17, Y -0.069 ± 0.13, M 0.044 ± 0.14, E 0.031 ± 0.17, G 0.054 ± 0.11, N 0.031 ± 0.34, K -0.152 ± 0.33, P 0.082 ± 0.1, F 0.095 ± 0.17, C -0.113 ± 0.16, A 0.067 ± 0.082, V 0.097 ± 0.069, T 0.019 ± 0.12, L 0.012 ± 0.088, S -0.063 ± 0.12
